Data as given in paper PMC5058748, “ZNF224, Krüppel like zinc finger protein, induces cell growth and apoptosis-resistance by down-regulation of p21 and p53 via miR-663a”.

Biological target: FLAG-ZNF224 (UniProt Q9NZL3 1-707)
Assay: SPR; protein immobilized, oligo as analyte; SPR: 1x PBS, Reichert SR7500DC, CMDH chip, oligo 0-10 uM; pH and temperature not stated; ELISA buffer not in material
Details: protein: recombinant; tags: 3xFLAG; label: 5'-biotin (ELISA oligos); hairpin

Chain of FLAG-ZNF224 (Q9NZL3 whole entry): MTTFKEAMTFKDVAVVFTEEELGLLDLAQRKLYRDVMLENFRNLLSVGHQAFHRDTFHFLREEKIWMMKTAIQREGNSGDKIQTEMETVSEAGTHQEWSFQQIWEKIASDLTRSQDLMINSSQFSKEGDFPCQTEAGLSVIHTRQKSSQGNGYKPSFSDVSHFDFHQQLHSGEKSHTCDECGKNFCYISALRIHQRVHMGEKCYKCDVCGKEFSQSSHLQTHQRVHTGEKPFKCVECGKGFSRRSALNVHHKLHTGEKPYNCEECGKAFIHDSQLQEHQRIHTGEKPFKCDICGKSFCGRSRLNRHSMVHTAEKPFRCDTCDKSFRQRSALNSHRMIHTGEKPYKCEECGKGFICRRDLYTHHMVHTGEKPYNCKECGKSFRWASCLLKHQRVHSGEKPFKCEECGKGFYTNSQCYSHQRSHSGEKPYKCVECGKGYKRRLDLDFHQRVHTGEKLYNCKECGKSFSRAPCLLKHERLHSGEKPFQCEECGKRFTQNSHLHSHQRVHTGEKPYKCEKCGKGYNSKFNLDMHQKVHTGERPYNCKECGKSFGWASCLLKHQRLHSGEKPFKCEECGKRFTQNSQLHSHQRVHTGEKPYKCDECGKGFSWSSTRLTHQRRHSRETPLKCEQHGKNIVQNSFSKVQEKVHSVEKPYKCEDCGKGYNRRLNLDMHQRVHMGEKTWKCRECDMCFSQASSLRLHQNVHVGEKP

Row | Binder | Kd
1 | CAGCTTC hairpin oligo (dsDNA) DNA 1: CCAAGAAGCTGAAAGGGAAAAACCCTTTCAGCTTCTTGG DNA 2: CCAAGAAGCTGAAAGGGTTTTTCCCTTTCAGCTTCTTGG | 1250 ± 60 nM
2 | CAGCGTC hairpin oligo (dsDNA) DNA 1: CCAAGACGCTGAAAGGGAAAAACCCTTTCAGCGTCTTGG DNA 2: CCAAGACGCTGAAAGGGTTTTTCCCTTTCAGCGTCTTGG | 2000 ± 100 nM
3 | GCAGCAA hairpin oligo (dsDNA) DNA 1: CCAAGCAGCAAAAAGGGAAAAACCCTTTTTGCTGCTTGG DNA 2: CCAAGCAGCAAAAAGGGTTTTTCCCTTTTTGCTGCTTGG | 420 ± 30 nM
